Reference: paper PMC6335420, “The cell cycle regulator GpsB functions as cytosolic adaptor for multiple cell wall enzymes” (Nature Communications, 2019)
Substitutions are numbered along the chain they refer to. Entries after “also recorded” stand apart in the source; their conditions may differ. No end group written: not given here.

T1: full-length BsPBP1 (Bacillus subtilis PBP1) (B. subtilis, UniProt P39793 1-914)
T1 construct: also called wild-type BsPBP1; source: E. coli, purified from membrane pellets (His select resin, thrombin, Superdex S200)
T1 sequence (looked up): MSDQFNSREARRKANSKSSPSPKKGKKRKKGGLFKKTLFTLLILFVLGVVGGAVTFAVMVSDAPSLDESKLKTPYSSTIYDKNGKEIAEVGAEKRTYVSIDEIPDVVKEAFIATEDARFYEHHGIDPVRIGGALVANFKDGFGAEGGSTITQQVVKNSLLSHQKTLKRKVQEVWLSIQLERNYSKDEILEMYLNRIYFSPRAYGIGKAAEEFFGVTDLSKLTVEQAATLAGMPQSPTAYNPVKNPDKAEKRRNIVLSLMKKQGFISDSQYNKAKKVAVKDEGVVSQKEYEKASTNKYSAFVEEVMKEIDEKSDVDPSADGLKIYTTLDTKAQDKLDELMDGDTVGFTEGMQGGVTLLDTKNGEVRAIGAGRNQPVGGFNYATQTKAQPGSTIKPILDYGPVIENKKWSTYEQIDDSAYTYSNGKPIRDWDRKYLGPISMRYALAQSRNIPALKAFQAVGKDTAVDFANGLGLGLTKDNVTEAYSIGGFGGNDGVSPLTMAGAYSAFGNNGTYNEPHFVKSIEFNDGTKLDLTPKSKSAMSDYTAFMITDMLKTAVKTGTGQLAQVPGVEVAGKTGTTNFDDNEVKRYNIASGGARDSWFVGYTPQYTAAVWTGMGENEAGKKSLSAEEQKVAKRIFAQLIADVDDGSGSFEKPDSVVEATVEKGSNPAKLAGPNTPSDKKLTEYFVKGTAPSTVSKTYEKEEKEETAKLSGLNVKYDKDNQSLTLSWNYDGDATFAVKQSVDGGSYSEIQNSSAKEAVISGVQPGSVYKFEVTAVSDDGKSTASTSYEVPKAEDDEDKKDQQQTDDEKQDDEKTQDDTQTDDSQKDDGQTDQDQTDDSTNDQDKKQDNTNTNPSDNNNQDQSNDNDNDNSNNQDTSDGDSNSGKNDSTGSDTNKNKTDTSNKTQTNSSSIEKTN

T2: BsGpsB_(1-68) (B. subtilis, UniProt P0CI74 1-68)
T2 construct: GpsB, Bacillus subtilis, residues 1-68; also called N-terminal domain of BsGpsB; source: E. coli, purified (Ni-NTA, thrombin, size exclusion)
T2 sequence (looked up): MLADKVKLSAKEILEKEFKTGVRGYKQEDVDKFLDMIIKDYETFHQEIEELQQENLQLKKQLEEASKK

T3: SpPBP2a_(23-45)^Arg31Lys,Arg33Lys, TAMRA-labelled (S. pneumoniae R6, UniProt Q8DNB6 23-45, Gly43 to cysteine | Arg31Lys | Arg33Lys, TAMRA (maleimide) label)
T3 construct: also called SpPBP2a^Arg31Lys,Arg33Lys; source: E. coli, His-tagged MBP fusion purified (Ni-NTA), labelled, TEV-cleaved, ultrafiltration
T3 peptide: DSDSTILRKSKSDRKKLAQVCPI

T4: SpPBP2a_(23-45)^Arg31Lys, TAMRA-labelled (S. pneumoniae R6, UniProt Q8DNB6 23-45, Gly43 to cysteine | Arg31Lys, TAMRA (maleimide) label)
T4 construct: also called SpPBP2a^Arg31Lys; source: E. coli, His-tagged MBP fusion purified (Ni-NTA), labelled, TEV-cleaved, ultrafiltration
T4 peptide: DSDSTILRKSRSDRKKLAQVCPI

T5: SpPBP2a_(23-45), TAMRA-labelled (S. pneumoniae R6, UniProt Q8DNB6 23-45, Gly43 to cysteine, TAMRA (maleimide) label)
T5 construct: source: E. coli, His-tagged MBP fusion purified (Ni-NTA), labelled, TEV-cleaved, ultrafiltration
T5 peptide: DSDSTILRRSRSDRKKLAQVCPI

B1: full-length BsGpsB (Bacillus subtilis GpsB) (natural protein, B. subtilis, UniProt P0CI74 1-98, looked up)
chain: MLADKVKLSAKEILEKEFKTGVRGYKQEDVDKFLDMIIKDYETFHQEIEELQQENLQLKKQLEEASKKQPVQSNTTNFDILKRLSNLEKHVFGSKLYD
notes: GpsB, Bacillus subtilis; purification of the full-length protein is not described here; source: E. coli BL21(DE3) used for recombinant protein production)
B2: BsPBP1_(1-32), TAMRA-labelled at position 16 (peptide, UniProt P39793 1-32, looked up)
peptide: MSDQFNSREARRKANC(TAMRA (maleimide))KSSPSPKKGKKRKKGG
notes: PBP1, Bacillus subtilis, residues 1-32; also called BsPBPA1_(1-32); BsPBP1A_(1-32); source: E. coli, His-tagged MBP fusion purified (Ni-NTA), labelled, TEV-cleaved, ultrafiltration
B3: SpPBP2a_(27-40) (peptide, UniProt Q8DNB6 27-40, looked up)
peptide: TILRRSRSDRKKLA
notes: PBP2a, Streptococcus pneumoniae, residues 27-40; also called 14-residue peptide of SpPBP2a; source: synthetic peptide
B4: BsYrrS_(Δ13-16) (natural protein)
chain: MSNNQSRYENRDANLVLNILIAIVSILIVVVAANLFINSPSSKDVSKDSETAQKQESPASGKTEKKSDEDIKDSKKDTSDSEKDSEKSSDSDSKKDDSSSKKDDSDSDSSSDSAGDGLKDAKVTEGGSSSDVEKTYENPDWKAVGTEQTGEHAATYDSSSQDWAEMLKAISYATGVSTDNMTVLWLGNNGSPQDAKGKILDKATGNKYQVTITWVDEKGWKPTKVEKLK
notes: source: E. coli BL21(DE3), purified from membranes (Ni-NTA, Superdex 200)
B5: SpGpsB_(4-63) (domain or fragment, S. pneumoniae R6, UniProt Q8DR57 4-63, looked up)
chain: IIFSAKDIFEQEFGREVRGYNKVEVDEFLDDVIKDYETYAALVKSLRQEIADLKEELTRK
notes: GpsB, Streptococcus pneumoniae R6, residues 4-63; also called slightly truncated form of the N-terminal domain of SpGpsB; source: E. coli, purified (Ni-NTA, TEV, Superdex 75); not shown: His6, N-terminal, cleaved
B6: SpGpsB_(1-63) (domain or fragment)
chain: MASIIFSAKDIFEQEFGREVRGYNKVEVDEFLDDVIKDYETYAALVKSLRQEIADLKEELTRK
notes: GpsB, Streptococcus pneumoniae R6, residues 1-63 (stop codon in place of Pro64); also called N-terminal domain of SpGpsB; wildtype SpGpsB_(1-63); source: E. coli, purified (Ni-NTA, thrombin, ammonium sulphate precipitation, gel filtration)
B7: SpGpsB_(1-63)^Asp33Ala (domain or fragment)
chain: B6 chain with D33A
notes: also called SpGpsB^Asp33Ala; source: E. coli, purified (Ni-NTA, thrombin, ammonium sulphate precipitation, gel filtration)

Key:
full-length BsPBP1 = experiment: SPR binding to immobilised full-length BsPBP1; design: species or system Bacillus subtilis
Text: (§1) BsPBP1 and BsPBP1_17-914 were immobilised on the surface of a CM5 chip (GE Healthcare). For the BsPBP1/YrrSΔ13-16 titration 800 RUs of BsPBP1 were immobilised on the chip surface; for the BsPBP1/BsGpsB titration 1200 RUs of BsPBP1 were immobilised. YrrSΔ13-16, which lacks residues 13–16 in the cytoplasmic domain, was used in these experiments to minimise non-specific interactions with the chip matrix; binding of YrrSΔ13-16 to the reference surface was negligible and the deletion of residues 13–16 leaves the GpsB-binding motif intact. The YrrSΔ13-16 titration was carried out in single-cycle mode, without regenerating the surface between successive injections of protein, because harsh reagents were necessary for full surface regeneration.

BsPBP1_17-914 = experiment: SPR binding to immobilised BsPBP1_17-914; design: species or system Bacillus subtilis; conditions: chip coated with BsPBP1_17-914, even when 25 µM BsGpsB injected
Text: as §1

[1] = target: T1, full-length BsPBP1 (Bacillus subtilis …); experiment: SPR; BsPBP1 or BsPBP1_(17-914) immobilised on a CM5 chip (1200 RUs of BsPBP1); BsGpsB injected; 10 mM Tris.HCl pH 8.0, 250 mM NaCl, 0.1% reduced Triton X-100; conditions: both partners purified
[2] = target: B1; experiment: fluorescence polarisation; GpsB protein titrated into fluorescently labelled peptide; 10 mM Tris.HCl pH 8.0, 250 mM NaCl, 0.1% reduced Triton X-100; fit to a 1:1 interaction model; conditions: both partners purified
BsGpsB_(1-68) = target: T2, BsGpsB_(1-68); experiment: as above; conditions: both partners purified
SpGpsB_(4-63) = target: B5; experiment: crystal structure; co-crystallisation of GpsB N-terminal domain with PBP peptide, 1:5 molar ratio protein:peptide, room temperature; conditions: both partners purified
[3] = target: T1, full-length BsPBP1 (Bacillus subtilis …); experiment: SPR; conditions: both partners purified
[4] = target: the molecule itself; experiment: crystal structure; co-crystallisation of GpsB N-terminal domain with PBP peptide, 1:5 molar ratio protein:peptide, room temperature
[5] = target: Fluorescein-SpPBP2b1-17 (S. pneumoniae R6); experiment: fluorescence polarisation; GpsB protein titrated into TAMRA- or fluorescein-labelled peptide; 10 mM Tris.HCl pH 8.0, 250 mM NaCl, 0.1% reduced Triton X-100; all data fitted to a 1:1 interaction model, Kd ± standard error
[6] = target: T3, SpPBP2a_(23-45)^Arg31Lys,Arg33Lys, …; experiment: fluorescence polarisation; conditions: both partners purified
[7] = target: T4, SpPBP2a_(23-45)^Arg31Lys, TAMRA-labelled; experiment: fluorescence polarisation; conditions: both partners purified
[8] = target: T5, SpPBP2a_(23-45), TAMRA-labelled; experiment: fluorescence polarisation; conditions: both partners purified

Q: Which Kd (full-length BsPBP1; SPR, PBP1-coated chip, full-length GpsB data fit 1:1 only over limited concentration range (avidity), BsGpsB1-68 supports 1:1, peer review file, read-out: affinity / Kd by SPR) does the source give for B1 here?
A: Its Kd is 0.7 µM.

Q: What about the “SPR binding (in words)” value (full-length BsPBP1; chip coated with wild-type BsPBP1 (1200 RU), submicromolar BsGpsB) of the same molecule?
A: The value was “submicromolar concentrations of BsGpsB bound to chips coated with the wild-type BsPBP1”.

Q: And the “SPR binding (in words)” value (BsPBP1_17-914)?
A: Its value is “does not interact; also recorded: no interaction”.

Q: Does B1 bind [1]?
A: Result: binds

Q: Does B2 bind [2]?
A: Result: binds

Q: Does B2 bind (BsGpsB_(1-68))?
A: Result: binds

Q: Does B3 bind (SpGpsB_(4-63))?
A: Result: binds

Q: B4 was tested. Which Kd [3] did it give?
A: The Kd was 0.02 µM.

Q: Does B5 bind [4]?
A: Result: binds

Q: For B6, which Kd [5] is on record?
A: Its Kd is over 3600 µM.

Q: What about the “fold reduction in affinity against wild type” value (from here on “fold reduction in affinity”) [6] of the same molecule?
A: Its value is over 25 fold.

Q: What about the “fold reduction in affinity” value [7] of the same molecule?
A: The value was 2 fold.

Q: How did the “fold reduction in affinity” value [8] turn out when B7 was run?
A: The value was about 40 fold.
